Where no end group is shown, it is not given here.
Legend:
[1] = biological target: T1, N-cadherin/Fc chimeric protein (human, UniProt P19022 160-724); experiment: phage ELISA, 1.2 mM calcium
T1 construct: range 160-724; Bought from R&D Systems; also called N-cad/Fc; human N-cadherin/Fc chimeric protein; not shown: Fc region of human IgG1
T1 sequence (looked up): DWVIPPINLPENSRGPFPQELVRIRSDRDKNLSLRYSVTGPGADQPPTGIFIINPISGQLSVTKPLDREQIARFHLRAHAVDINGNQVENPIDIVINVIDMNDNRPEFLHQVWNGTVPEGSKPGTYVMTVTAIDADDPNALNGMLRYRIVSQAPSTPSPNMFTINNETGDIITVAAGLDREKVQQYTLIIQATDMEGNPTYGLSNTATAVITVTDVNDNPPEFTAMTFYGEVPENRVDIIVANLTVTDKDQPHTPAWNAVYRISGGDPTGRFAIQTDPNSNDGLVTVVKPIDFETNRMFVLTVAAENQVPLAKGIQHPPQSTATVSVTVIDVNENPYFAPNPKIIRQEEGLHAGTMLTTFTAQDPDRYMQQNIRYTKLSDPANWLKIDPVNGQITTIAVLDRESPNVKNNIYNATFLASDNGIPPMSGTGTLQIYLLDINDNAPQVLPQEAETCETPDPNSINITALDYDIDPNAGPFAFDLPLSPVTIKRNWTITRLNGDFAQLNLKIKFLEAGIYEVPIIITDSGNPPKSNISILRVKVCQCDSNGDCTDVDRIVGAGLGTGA
Procedure: The binding of each clone to the cadherin/Fc chimeric proteins was confirmed by ELISA. Wells of ProBind microtiter plates (Falcon) were coated with either N-cadherin/Fc or E-cadherin/Fc chimeric protein (100 ng/well) or human IgG1 (which contains the Fc fragment) (100 ng/well). After blocking the nonspecific sites with TBS containing 3% BSA and 1.2 mM CaCl₂ for 1 h at 37° C., phage clones (10⁹ pfu) diluted in TBST containing 3% BSA and 1.2 mM CaCl₂ (100 μl/well). Non-coated wells were also used to exclude any phage that bound to the plastic surface. After 1 h incubation at room temperature, wells were washed 3 times with TBST containing 3% BSA and 1.2 mM CaCl₂. M13 phage without any insert were used to control the non-specific binding of the phage itself to the target. Monoclonal anti-M13 antibody conjugated to horseradish peroxidase (Amersham Biosciences, Piscataway, N.J.) was diluted in TBST containing 3% BSA and 1.2 mM CaCl₂ (1:2,000) and added to each well (100 μl/well). After 1 h incubation at room temperature, wells were washed three times with TBST containing 3% BSA and 1.2 mM CaCl₂ and once with TBS containing 1.2 mM CaCl₂. Horseradish peroxidase substrate, TMB (Sigma), was added to each well (100 μl/well and after color development the reaction was stopped by addition of 100 μl 0.5 M sulphuric acid to each well. The intensity of the color was measured at 450 nm.

[2] = biological target: T2, E-cadherin/Fc chimeric protein (human, UniProt P12830 155-707); experiment: phage ELISA, in the absence or presence of calcium
T2 construct: range 155-707; Bought from R&D Systems; also called E-cad/Fc; human E-cadherin/Fc chimeric protein; not shown: Fc region of human IgG1
T2 sequence (looked up): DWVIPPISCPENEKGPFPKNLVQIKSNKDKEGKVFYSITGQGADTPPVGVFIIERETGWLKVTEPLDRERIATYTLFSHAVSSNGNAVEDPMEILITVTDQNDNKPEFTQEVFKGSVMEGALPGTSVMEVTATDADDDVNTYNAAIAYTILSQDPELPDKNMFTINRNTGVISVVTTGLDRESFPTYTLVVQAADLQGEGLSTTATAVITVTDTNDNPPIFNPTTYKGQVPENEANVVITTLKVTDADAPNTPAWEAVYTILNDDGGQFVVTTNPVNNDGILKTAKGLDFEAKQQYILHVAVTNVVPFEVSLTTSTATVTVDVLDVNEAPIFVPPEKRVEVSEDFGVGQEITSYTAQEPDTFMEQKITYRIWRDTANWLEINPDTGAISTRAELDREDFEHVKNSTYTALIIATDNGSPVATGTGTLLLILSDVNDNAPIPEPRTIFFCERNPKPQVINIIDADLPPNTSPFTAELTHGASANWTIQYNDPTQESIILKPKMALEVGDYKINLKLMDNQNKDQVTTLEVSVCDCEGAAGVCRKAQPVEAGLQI
Procedure: (§1) The phage clones shown to bind to the N-cadherin/Fc chimeric protein by ELISA were also evaluated for their ability to bind to E-cadherin/Fc and VE-cadherin/Fc chimeric proteins. The phage clones shown to bind to the E-cadherin/Fc chimeric protein by ELISA were also evaluated for their ability to bind to N-cadherin/Fc and VE-cadherin/Fc chimeric proteins. The same ELISA protocol described in the previous section was used to perform this evaluation with the exception that the wells were coated with either 100 ng N-cadherin/Fc, E-cadherin/Fc or VE-cadherin/Fc chimeric protein (R&D Systems, Minneapolis, Minn.).

[3] = biological target: T3, VE-cadherin/Fc chimeric protein (UniProt P33151 48-593); experiment: phage ELISA, in the absence or presence of calcium
T3 construct: Bought from R&D Systems; also called vascular endothelial (VE)-cadherin/Fc chimeric protein; not shown: Fc part not described
T3 sequence (looked up): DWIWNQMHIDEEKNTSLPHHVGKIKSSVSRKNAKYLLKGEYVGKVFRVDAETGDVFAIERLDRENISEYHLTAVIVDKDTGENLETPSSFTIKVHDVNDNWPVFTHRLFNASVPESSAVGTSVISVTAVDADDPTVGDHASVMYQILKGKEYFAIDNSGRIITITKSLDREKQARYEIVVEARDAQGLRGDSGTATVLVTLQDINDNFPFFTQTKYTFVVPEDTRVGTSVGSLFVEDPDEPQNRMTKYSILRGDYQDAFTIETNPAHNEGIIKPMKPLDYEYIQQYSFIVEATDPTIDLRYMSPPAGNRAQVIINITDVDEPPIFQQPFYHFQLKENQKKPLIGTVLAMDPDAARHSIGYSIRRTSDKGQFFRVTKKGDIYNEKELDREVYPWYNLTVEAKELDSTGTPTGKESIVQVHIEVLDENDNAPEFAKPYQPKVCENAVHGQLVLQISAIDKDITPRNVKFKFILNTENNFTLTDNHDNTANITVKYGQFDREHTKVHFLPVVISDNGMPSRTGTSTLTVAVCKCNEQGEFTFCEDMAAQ
Procedure: as §1

B1: phage clone NoCa1 (peptide)
peptide: WYVCVGAHC
modifications: not fully specified; cysteine pairing not given here; also: displayed on M13 phage pIII
notes: whole phage in the assay
binding result [1]: binds
binding result [2]: no binding (tested: 10^9 pfu)
binding result [3]: no binding (tested: 10^9 pfu)

B2: phage clone NoCa11 (peptide)
peptide: WQVCVGAHC
modifications: not fully specified; cysteine pairing not given here; also: displayed on M13 phage pIII
notes: whole phage in the assay
binding result [1]: binds
binding result [2]: no binding (tested: 10^9 pfu)
binding result [3]: no binding (tested: 10^9 pfu)

— patent US20100240066A1 (MCGILL UNIVERSITY, published 2010)
